According to patent US20240166737A1 (Janssen / Centocor, published 2024):
Substitutions are numbered along the chain they refer to. One block for each binder: values may come before it.

Columns and labels:
recombinant CD3 [1] = biological target: T1, recombinant CD3 (UniProt P07766 23-126); assay: SPR; lower end of the range
T1 construct: also called CD3 (SPR)

recombinant CD3 [2] = biological target: T1, recombinant CD3; assay: SPR; upper end of the range
[3] = biological target: T2, CD3 epsilon on human T-cells (human, UniProt P07766 23-207); assay: T cell binding
T2 construct: part of the TCR-CD3 complex on T cells; also called CD3 on T cells

[4] = biological target: T3, 8 AA stub (a.a. 296-303 of SEQ ID NO: 247) (human); assay: competition of OVCAR8 cell binding by the peptide
T3 construct: also called 8 AA Peptide; peptide of the last 8 C-terminal amino acids
T3 peptide: LSMQEALS

[5] = biological target: T4, 12 AA stub region peptide LVLDLSMQEALS (human); assay: SPR
T4 construct: free N-terminus; also called 12 AA Peptide
T4 peptide: LVLDLSMQEALS

[6] = biological target: T5, MSNW10, recombinant full length human MSLN (human, UniProt Q13421 296-598); assay: SPR, recombinant full-length human MSLN
T5 construct: also called MSNW10.002; FL-MSLN

[7] = biological target: T6, MSNW11, recombinant soluble (shed) MSLN lacking the C-terminal 7 AAs (human, UniProt Q13421 296-591); assay: H838 cell binding with shed MSLN (MSNW11) added
T6 construct: domain: soluble MSLN lacking the C-terminal 7 AAs; also called MSNW11.002; soluble MSLN
Source text: (§1) Table 16 lists the immunization campaigns, antigens used, and number of clones returned at each stage of screening. Clones from which antibody sequences were successfully recovered were first screened for binding to recombinant full length human MSLN (MSNW10) and H838 cells that express MSLN on the cell surface. Binders were further screened for binding to cells in the presence of recombinant soluble MSLN lacking the C-terminal 7 AAs (MSNW11). This form of recombinant MSLN represented the product of cleavage at the closest cleavage site to the C-terminus known at the time, therefore, it theoretically represented the longest form of shed MSLN. The final concentration of shed MSLN in the assays was 100 nM.

[8] = biological target: T7, human MSLN on the cell surface (human, UniProt Q13421 296-598); assay: high content imaging, surface staining of OVCAR8 cells
T7 construct: on cells stands the processed GPI-anchored 40 kDa MSLN; also called membrane MSLN; MSLN on H838, OVCAR-8 (OVCAR8), OVCAR-8 K1/C8, SK-OV-3 cells
Protocol: OVCAR8 cells were cultured in RPMI 1640 medium supplemented with 10% FCS, 1% L-glutamine and 1% Gentamycin and seeded in Greiner CELLSTAR plate one day before experiment. 24 h after seeding, antibody mixture was prepared by diluting MSLN and control antibodies in Table 21 in full media containing CellMask™ Deep Red Plasma Membrane Stain (ThermoFisher, C10046) in 12 concentrations each with 3 folds dilution starting from 20 μg/ml and 20 μl of which were added directly to the cells in 20 μl. Antibodies were allowed for binding to the cell surface for 2h inside the incubator (37°) C. and the surface bound antibodies were fixed for 15 min at RT by directly adding 30 ul of 10% Formaldehyde (04018-1, Polysciences). Afterwards residual Formaldehyde was removed by washing the cells twice with PBS and the primary antibodies were stained with secondary antibodies (Alexa Fluor 488 goat anti-human IgG, Invitrogen, A11013) complemented with Hoechst 33342 (H3570, ThermoFisher) and HCS CellMask™ Deep Red Stain (ThermoFisher, H32721) in PBS for 1h at RT. After removing unbound antibodies and other dyes by washing the cells 3 times with PBS cells were imaged on the CellVoyager 7000 (Yokogawa, Tokyo, Japan) using a 40×/0.95 objective. Of each well, 9 fields were imaged. Image analysis was performed with Acapella (PerkinElmer, Waltham, MA, USA) and the results stored in Phaedra (OpenAnalytics, Antwerp, Belgium). Data analysis was done in R (www.r-project.org).
The data was then fitted using the four-parameter logistic using least-squares regression, keeping the lower boundary fixed at 0.

[9] = biological target: T8, 11 AA stub (a.a. 293-303 of SEQ ID NO: 247) (human); assay: SPR, mAb captured, peptide injected
T8 peptide: VLDLSMQEALS
Protocol: (§2) The binding was assessed by SPR. Briefly, GAH-Fc was used to capture mAbs on C4 sensor chip followed by antigen injection starting at 30 nM (14 amino acid stub), 100 nM (10-13 amino acid stubs), or 1000 nM (7-9 amino acid stubs) progressing in a 3-fold dilution series in single cycle kinetics mode. HBSP+0.01% BSA was used in the assay.

[10] = biological target: T9, 13 AA stub (a.a. 291-303 of SEQ ID NO: 247) (human); assay: SPR, mAb captured, peptide injected
T9 peptide: YLVLDLSMQEALS
Protocol: as §2

[11] = biological target: T10, 9 AA stub (a.a. 295-303 of SEQ ID NO: 247) (human); assay: SPR, mAb captured, peptide injected
T10 peptide: DLSMQEALS
Protocol: as §2

[12] = biological target: T11, 10 AA stub (a.a. 294-303 of SEQ ID NO: 247) (human); assay: SPR, mAb captured, peptide injected
T11 peptide: LDLSMQEALS
Protocol: as §2

[13] = biological target: T12, 14 AA stub (a.a. 290-303 of SEQ ID NO: 247) (human); assay: SPR, mAb captured, peptide injected
T12 peptide: GYLVLDLSMQEALS
Protocol: as §2

[14] = biological target: T13, 7 AA stub (a.a. 297-303 of SEQ ID NO: 247) (human); assay: SPR, mAb captured, peptide injected
T13 peptide: SMQEALS
Protocol: as §2

[15] = biological target: T7, human MSLN on the cell surface; assay: binding to H838 cells with and without 100 nM recombinant shed MSLN (MSNW11); the two curves lie on each other
Source text: as §1

huDesmin, recombinant = huDesmin, recombinant (human, UniProt P17661 1-470, limits assumed); assay: SPR
[16] = biological target: T4, 12 AA stub region peptide LVLDLSMQEALS; assay: SPR, mAb captured, peptide injected
Protocol: as §2

[17] = biological target: T2, CD3 epsilon on human T-cells; assay: cell-based or functional assay
[18] = biological target: T2, CD3 epsilon on human T-cells; assay: T-cell binding assay, FIG. 15
[19] = biological target: T7, human MSLN on the cell surface; assay: flow cytometry (MFI PE) on OVCAR-8 cells
recombinant CD3 [20] = biological target: T1, recombinant CD3; assay: SPR
[21] = biological target: human MSLN on the cell surface (human, UniProt Q13421 296-598); assay: flow cytometry (MFI PE) on OVCAR-8 cells
[22] = biological target: T7, human MSLN on the cell surface; assay: estimated from cell binding, not SPR; upper end of the range
[23] = biological target: T3, 8 AA stub (a.a. 296-303 of SEQ ID NO: …); assay: SPR, mAb captured, peptide injected
Protocol: as §2

[24] = biological target: T7, human MSLN on the cell surface; assay: estimated from cell binding, not SPR; lower end of the range
[25] = biological target: T5, MSNW10, recombinant full length human …; assay: SPR, additional experiments

T2 sequence (P07766 23-207 limits assumed): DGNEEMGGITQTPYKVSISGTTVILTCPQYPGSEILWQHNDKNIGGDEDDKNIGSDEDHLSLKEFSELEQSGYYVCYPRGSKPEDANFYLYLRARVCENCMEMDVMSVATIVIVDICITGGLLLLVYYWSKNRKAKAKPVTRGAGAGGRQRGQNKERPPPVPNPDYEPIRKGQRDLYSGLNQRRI
T5 sequence (Q13421 other isoform, or with tags, fused parts or gaps limits assumed): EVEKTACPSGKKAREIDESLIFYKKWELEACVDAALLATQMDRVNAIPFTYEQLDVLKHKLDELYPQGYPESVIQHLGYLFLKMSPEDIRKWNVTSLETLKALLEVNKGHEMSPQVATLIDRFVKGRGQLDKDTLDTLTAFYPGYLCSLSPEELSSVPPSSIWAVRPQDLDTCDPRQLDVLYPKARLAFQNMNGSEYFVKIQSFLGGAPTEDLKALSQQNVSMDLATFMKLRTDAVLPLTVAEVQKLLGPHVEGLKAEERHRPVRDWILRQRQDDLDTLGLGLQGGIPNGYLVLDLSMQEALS
T6 sequence (Q13421 other isoform, or with tags, fused parts or gaps limits assumed): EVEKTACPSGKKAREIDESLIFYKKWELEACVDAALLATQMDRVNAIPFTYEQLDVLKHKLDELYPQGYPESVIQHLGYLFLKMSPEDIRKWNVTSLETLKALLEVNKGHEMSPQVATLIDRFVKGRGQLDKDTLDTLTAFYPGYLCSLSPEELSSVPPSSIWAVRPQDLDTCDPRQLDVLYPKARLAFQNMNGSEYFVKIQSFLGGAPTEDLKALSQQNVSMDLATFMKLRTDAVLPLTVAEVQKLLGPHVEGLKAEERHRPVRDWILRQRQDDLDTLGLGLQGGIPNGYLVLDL
T1 sequence (P07766 23-126): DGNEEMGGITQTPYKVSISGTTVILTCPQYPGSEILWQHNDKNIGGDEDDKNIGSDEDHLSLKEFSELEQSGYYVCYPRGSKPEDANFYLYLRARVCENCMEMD
Sequence of huDesmin, recombinant (P17661 whole entry): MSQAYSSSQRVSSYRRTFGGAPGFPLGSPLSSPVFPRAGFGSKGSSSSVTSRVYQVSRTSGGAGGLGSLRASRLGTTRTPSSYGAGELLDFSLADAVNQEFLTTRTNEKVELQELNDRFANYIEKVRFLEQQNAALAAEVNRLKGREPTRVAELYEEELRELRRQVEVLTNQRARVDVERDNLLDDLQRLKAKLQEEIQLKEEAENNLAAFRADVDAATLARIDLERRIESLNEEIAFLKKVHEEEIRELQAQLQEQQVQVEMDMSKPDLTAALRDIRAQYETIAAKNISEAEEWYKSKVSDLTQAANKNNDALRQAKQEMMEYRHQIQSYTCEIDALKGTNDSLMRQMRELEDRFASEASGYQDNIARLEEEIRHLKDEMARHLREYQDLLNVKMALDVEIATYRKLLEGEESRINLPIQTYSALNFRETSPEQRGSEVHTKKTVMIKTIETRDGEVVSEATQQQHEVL

B1: CD3W245-HL-ScFv (scFv)
scFv: EVQLVESGGGLVKPGGSLRLSCAASGFTFSRYNMNWVRQAPGKGLEWVSSISTSSNYIYYADSVKGRFTFSRDNAKNSLDLQMSGLRAEDTAIYYCTRGWGPFDYWGQGTLVTVSSGGSEGKSSGSGSESKSTGGSDIQMTQSPSSLSASVGDRVTITCRARQSIGTAIHWYQQKPGKAPKLLIKYASESISGVPSRFSGSGSGTDFTLTISSLQPEDFATYYCQQSGSWPYTFGQGTKLEIK
Kd (recombinant CD3 [1]): ≥ 0.5 nM | Kd (recombinant CD3 [2]): ≤ 1 nM | EC50 [3]: 1 to 3 nM

B4: MNC3B193 (bispecific antibody)
scFv: DIQMTQSPSSLSASVGDRVTITCRARQSIGTAIHWYQQKPGKAPKLLIKYASESISGVPSRFSGSGSGTDFTLTISSLQPEDFATYYCQQSGSWPYTFGQGTKLEIKGGSEGKSSGSGSESKSTGGSEVQLVESGGGLVKPGGSLRLSCAASGFTFSRYNMNWVRQAPGKGLEWVSSISTSSNYIYYADSVKGRFTFSRDNAKNSLDLQMSGLRAEDTAIYYCTRGWGPFDYWGQGTLVTVSS
VH: QVQLVESGPGQVKPSQTLSLTCAISGDSVSSNSAAWNWIRQSPSRGLEWLGRTYYRSKWYNDYAVSVKSRITINPDTSKNQFSLQLNSVTPEDTAVYYCARRDYSSGGFDYWGQGTTVTVSS
VL: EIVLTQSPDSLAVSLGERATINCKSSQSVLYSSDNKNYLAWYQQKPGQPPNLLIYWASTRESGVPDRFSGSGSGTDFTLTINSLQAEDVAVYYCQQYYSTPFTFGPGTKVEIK
notes: Bipod: MSNB457 Fab x CD3W245 LH scFv-Fc; also called CD3W245 LH containing Bipod
AC90 [nM], cytotoxicity, 1:1 E:T, 72 hours [17]: 0.25 nM | Max. Activity, cytotoxicity, 1:1 E:T, 72 hours [17]: 91% | qAC50 [nM], cytotoxicity, 1:1 E:T, 72 hours [17]: 0.1 nM | EC50 [18]: 46 nM | EC50 (read off the curve) [19]: ~8 nM

B5: CD3W245-LH-ScFv (scFv)
scFv: B4 scFv
Kd (recombinant CD3 [20]): 0.5 to 1 nM | EC50 [3]: 20 to 50 nM

B6: MNC3B192 (bispecific antibody)
chain 1: QSALTQPASVSGSPGQSITISCTGTSSNIGTYKFVSWYQQHPGKAPKVMIYEVSKRPSGVSNRFSGSKSGNTASLTISGLQAEDEADYYCVSYAGSGTLLFGGGTKLTVLGGSEGKSSGSGSESKSTGGSQVQLQQSGPGLVKPSQTLSLTCAISGDSVFNNNAAWSWIRQSPSRGLEWLGRTYYRSKWLYDYAVSVKSRITINPDTSKNQFSLQLNSVTPEDTAVYYCARGYSSSFDYWGQGTLVTVSS
chain 2: B4 VH
chain 3: not shown
EC50 (read off the curve) [21]: ~8 nM

The remaining lines, values ahead:

binding result [4]: no binding | binding result [5]: binds | Kd [6]: 6.4 nM | binding result [7]: no binding (tested: 100 nM) | IC50 [8]: 0.0735 µg/mL | Maximum Value (arbitrary units) [8]: 1.46e+07 arbitrary units | binding result [9]: no binding (tested: 100 nM) | Kd [10]: 14 nM | binding result [11]: no binding (tested: 1000 nM) | binding result [12]: no binding (tested: 100 nM) | binding result [13]: binds | binding result [14]: no binding (tested: 1000 nM) | EC50 (read off the curve) [15]: ~0.4 nM
B2: MSNB124 (antibody, V domains shown)
VH: QVQLQQSGPGLVKPSQTLSLTCAISGDSVSSNSVAWHWIRQSPSRGLEWLGRTYHRSKWYNDYAVSVKSRITINPDTSKNQFSLQLNSVTPEDTAVYYCARQILGALDYWGQGTLVTVSS
VL: DIVMTQTPLSLPVTPGEPASISCRSSQSLQFGNGNYLDWYLQKPGQSPQLLIYLGSNRASGVPDRFSGSGSGTDFTLKISRVEAEDVGVYYCMQVLQIPFTFGPGTKVDIK
notes: mAb

binding result [4]: no binding | Kd [6]: 0.2 nM | binding result [7]: no binding (tested: 100 nM) | binding result (huDesmin, recombinant): binds | IC50 [8]: 0.0713 µg/mL | Maximum Value (arbitrary units) [8]: 1.54e+07 arbitrary units | Kd [16]: 0.692 nM | binding result [9]: no binding (tested: 100 nM) | Kd [10]: 0.469 nM | binding result [11]: no binding (tested: 1000 nM) | binding result [12]: no binding (tested: 100 nM) | Kd [13]: 0.364 nM | binding result [14]: no binding (tested: 1000 nM)
B3: MSNB71 (antibody, V domains shown)
VH: B2 VH with K13M, P14S, N32S, H37N, E48Q, H55F, N61Y, A100S, Q102G, L104V
VL: DIVMTQSPLSLPVTPGEPASISCRSSQSLLFTNGYDSLDWYLQKPGQSPQLLIYLVSNRASGVPDRFSGSGSGTEFTLKISRVEADDVGVYFCMQGIRTPFTFGPGTKLEIK
notes: mAb from Ablexis mouse; also called MSNB71.004

binding result [7]: no binding (tested: 100 nM) | Kd [22]: 1 to 5 nM | IC50 [8]: 0.0764 µg/mL | Maximum Value (arbitrary units) [8]: 1.7e+07 arbitrary units | Kd [16]: 2.33 nM | binding result [9]: no binding (tested: 100 nM) | Kd [10]: 2.64 nM | binding result [11]: no binding (tested: 1000 nM) | binding result [12]: no binding (tested: 100 nM) | Kd [13]: 1.61 nM | binding result [23]: no binding (tested: 1000 nM) | binding result [14]: no binding (tested: 1000 nM) | Kd [24]: 1 to 5 nM | Kd [25]: 0.5 nM
B7: MSLNB568 (antibody, V domains shown)
VH: QVQLQQSGPGLVKPSQTLSLTCGISGDSVSSSSVAWNWIRQSPSRGLEWLGRTYYRSKWYNDYAISVRSRVTINPDTSKNQFSLQLNSVTPEDTAVYYCSRGVVGALDYWGQGTLVTVSS
VL: DIVMTQSPLSLTVTPGEPASISCRSSQSLLFTNGYNSLDWYLQKPGQSPQFLIYLVSNRASGVPDRFSGSGSGTDFTLKISRVEAEDVGVYYCMQALRTPYTFGQGTKVEIK
notes: mAb; also called MSLNB568.001; MSNB568
